{"source": "patent CN112300278A", "about": "(UNIV SHANGHAI JIAOTONG, dated 2021)", "binders": {"B1": {"name": "CET06 (antibody, V domains shown)", "VH": "QVQLTQSGPGLVKPSETLSQTCTVSGFSLTNYGVHWVRQSPGKGLEWLGVIWSGGNTDYNTPFTSRLTISVDTSKNQVSLKLSSVTSNDTAVYYCARALTYYDYEFAYWGQGTLVTVSA", "VL": "DISLTQSPVFLSVTPGEKVESECRASQSIGTNIHWYQQKPDQSPKLLIKYASESISGVPSRFSGSGSGTDFTLTINSVESEDIADYYCQQNNNWPTTFGAGTKLELKR", "notes": "the summary and claim 2 give the reverse; also called 抗人EGFR嵌合抗体CET06"}}, "target": "T1, 人EGFR (human epidermal growth factor receptor) (human, UniProt P00533 25-1210)", "T1 construct": "whole, on cells; The target is on tumour cell lines that naturally express EGFR; No recombinant EGFR was used; also called 表皮生长因子受体; EGFR分子", "assay": "flow cytometry on MAD-MB-231 cells highly expressing EGFR; 293F supernatant (~20ug antibody), FITC donkey anti-human IgG"}
{"binder": "B1", "values": [{"measurement": "binding result", "result": "binds"}]}
